Measurements: article PMC5286394, “Architecture of the yeast Elongator complex” (EMBO Reports, 2016)

B2: endogenous Elp3 (enzyme, UniProt Q02908 1-557, looked up)
chain: MARHGKGPKTNKKKLAPEKERFIQCCADITLELTDSLTSGTTREINLNGLITKYSKKYKLKQQPRLTDIINSIPDQYKKYLLPKLKAKPVRTASGIAVVAVMCKPHRCPHIAYTGNICVYCPGGPDSDFEYSTQSYTGYEPTSMRAIRARYDPYEQARGRVEQLKQLGHSIDKVEYVLMGGTFMSLPKEYREDFIVKLHNALSGFNGNDIDEAILYSQQSLTKCVGITIETRPDYCTQTHLDDMLKYGCTRLEIGVQSLYEDVARDTNRGHTVRSVCETFAVSKDAGYKVVSHMMPDLPNVGMERDIEQFKEYFENPDFRTDGLKIYPTLVIRGTGLYELWKTGRYKSYSANALVDLVARILALVPPWTRIYRVQRDIPMPLVTSGVDNGNLRELALARMKDLGTTCRDVRTREVGIQEVHHKVQPDQVELIRRDYYANGGWETFLSYEDPKKDILIGLLRLRKASKKYTYRKEFTSQRTSIVRELHVYGSVVPLHSRDPRKFQHQGFGTLLMEEAERIAKEEHGSEKISVISGVGVRNYYGKLGYELDGPYMSKRI
notes: Elp3, S. cerevisiae, endogenous protein; source: endogenous, S. cerevisiae strains BS1173 and BSY2369, co-purified with Elp1-TAP or Elp6-TAP

Assays:
[1] = molecular target: T1, GST-tagged full-length Elp1 (S. cerevisiae, UniProt Q06706 1-1349); assay: pull-down; GST pull-down: 20 μg GST-tagged protein and increasing amounts of untagged partner with glutathione Sepharose, 2 h at 4°C, 20 mM Tris pH 7.5, 150 mM NaCl, 5 mM DTT, 0.1% Tween-20; five washes; SDS–PAGE, Coomassie; details: both partners purified
T1 construct: Elp1, Elongator subunit 1, S. cerevisiae; also called GST-Elp1; source: E. coli BL21 pSarRare, purified (NiNTA, S200 gel filtration); not shown: His6, N-terminal, kept; GST, N-terminal, kept
T1 sequence (looked up): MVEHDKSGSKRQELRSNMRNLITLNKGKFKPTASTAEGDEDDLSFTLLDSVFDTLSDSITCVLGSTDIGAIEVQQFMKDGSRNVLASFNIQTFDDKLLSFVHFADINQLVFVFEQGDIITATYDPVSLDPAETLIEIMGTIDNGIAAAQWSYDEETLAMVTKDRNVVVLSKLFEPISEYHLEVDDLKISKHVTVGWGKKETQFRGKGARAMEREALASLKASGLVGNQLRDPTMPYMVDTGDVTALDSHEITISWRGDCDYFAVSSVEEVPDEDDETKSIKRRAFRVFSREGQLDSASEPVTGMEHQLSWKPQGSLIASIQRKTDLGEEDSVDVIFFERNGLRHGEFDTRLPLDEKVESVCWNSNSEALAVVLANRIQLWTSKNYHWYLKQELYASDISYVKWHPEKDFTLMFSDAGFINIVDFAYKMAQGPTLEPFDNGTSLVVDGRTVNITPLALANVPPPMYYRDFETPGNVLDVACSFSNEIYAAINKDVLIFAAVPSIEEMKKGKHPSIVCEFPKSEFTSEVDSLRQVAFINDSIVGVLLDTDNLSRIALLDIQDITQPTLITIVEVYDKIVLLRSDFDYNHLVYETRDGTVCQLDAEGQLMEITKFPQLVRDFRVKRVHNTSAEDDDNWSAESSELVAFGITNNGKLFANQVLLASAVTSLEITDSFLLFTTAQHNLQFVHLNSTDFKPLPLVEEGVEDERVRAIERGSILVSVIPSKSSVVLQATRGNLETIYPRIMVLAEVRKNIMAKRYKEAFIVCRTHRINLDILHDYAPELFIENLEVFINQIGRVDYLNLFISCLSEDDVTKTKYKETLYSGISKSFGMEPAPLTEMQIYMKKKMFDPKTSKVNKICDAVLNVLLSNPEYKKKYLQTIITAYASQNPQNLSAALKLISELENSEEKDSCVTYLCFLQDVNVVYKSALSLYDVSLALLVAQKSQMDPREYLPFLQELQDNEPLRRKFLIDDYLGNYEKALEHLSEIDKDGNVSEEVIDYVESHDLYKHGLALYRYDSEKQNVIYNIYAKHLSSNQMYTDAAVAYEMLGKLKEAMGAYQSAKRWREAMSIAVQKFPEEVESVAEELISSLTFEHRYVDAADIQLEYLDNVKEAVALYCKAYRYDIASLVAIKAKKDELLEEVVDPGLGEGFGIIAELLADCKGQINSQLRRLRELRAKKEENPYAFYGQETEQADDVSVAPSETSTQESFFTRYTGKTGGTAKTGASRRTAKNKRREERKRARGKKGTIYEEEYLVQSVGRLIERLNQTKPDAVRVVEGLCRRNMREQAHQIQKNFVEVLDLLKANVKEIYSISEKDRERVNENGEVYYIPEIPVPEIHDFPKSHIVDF

[2] = molecular target: T2, endogenously TAP-tagged Elp1 (S. cerevisiae (endogenous in strain …, UniProt Q06706 1-1349)); assay: tandem-affinity purification (SDS–PAGE); endogenous TAP-tagged bait from yeast lysate; IgG Sepharose, TEV elution, Calmodulin Sepharose, EGTA elution; HEPES pH 7.9, 125 mM NaCl; details: partners not purified
T2 construct: Elp1, S. cerevisiae, endogenous protein with TAP tag (Elp1-TAP::TRP1); also called Elp1-TAP
T2 sequence (looked up): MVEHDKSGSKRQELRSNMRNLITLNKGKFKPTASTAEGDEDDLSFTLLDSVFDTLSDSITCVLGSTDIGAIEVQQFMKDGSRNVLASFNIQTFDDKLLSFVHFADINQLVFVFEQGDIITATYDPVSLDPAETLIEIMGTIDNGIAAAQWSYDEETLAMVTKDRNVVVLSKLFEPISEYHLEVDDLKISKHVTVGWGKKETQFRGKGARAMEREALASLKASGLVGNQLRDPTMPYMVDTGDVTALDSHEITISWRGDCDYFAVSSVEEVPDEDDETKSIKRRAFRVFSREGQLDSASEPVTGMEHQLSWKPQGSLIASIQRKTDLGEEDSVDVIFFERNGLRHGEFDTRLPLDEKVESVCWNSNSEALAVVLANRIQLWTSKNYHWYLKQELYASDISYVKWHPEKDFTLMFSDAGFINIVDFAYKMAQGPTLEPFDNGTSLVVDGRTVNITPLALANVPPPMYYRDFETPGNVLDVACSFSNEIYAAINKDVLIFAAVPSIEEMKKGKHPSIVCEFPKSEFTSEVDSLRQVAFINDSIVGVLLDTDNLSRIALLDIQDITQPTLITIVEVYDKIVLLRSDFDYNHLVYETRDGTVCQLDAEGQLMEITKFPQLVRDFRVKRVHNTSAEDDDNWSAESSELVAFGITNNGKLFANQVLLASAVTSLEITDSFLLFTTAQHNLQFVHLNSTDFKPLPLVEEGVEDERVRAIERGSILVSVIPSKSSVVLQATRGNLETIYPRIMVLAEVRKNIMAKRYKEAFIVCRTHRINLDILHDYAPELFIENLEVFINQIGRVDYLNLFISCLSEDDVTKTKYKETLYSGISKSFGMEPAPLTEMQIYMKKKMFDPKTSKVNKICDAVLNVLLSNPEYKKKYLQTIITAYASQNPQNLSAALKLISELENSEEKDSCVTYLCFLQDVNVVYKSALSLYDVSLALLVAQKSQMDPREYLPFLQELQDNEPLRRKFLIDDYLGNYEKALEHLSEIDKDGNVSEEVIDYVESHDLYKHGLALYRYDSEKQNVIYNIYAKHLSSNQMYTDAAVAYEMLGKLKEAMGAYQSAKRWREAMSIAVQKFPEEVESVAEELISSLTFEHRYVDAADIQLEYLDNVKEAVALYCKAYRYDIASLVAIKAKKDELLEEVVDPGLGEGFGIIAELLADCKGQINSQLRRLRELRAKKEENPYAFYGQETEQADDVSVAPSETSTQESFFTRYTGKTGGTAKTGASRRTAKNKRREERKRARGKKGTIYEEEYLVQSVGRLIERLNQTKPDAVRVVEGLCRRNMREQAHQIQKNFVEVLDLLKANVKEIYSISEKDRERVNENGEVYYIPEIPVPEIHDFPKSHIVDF

[3] = molecular target: T3, purified N-terminal region of Elp1 (S. cerevisiae); assay: ITC; VP-ITC; 20 mM Tris–HCl pH 7.5, 150 mM NaCl, 2 mM β-mercaptoethanol; 10 μM in the cell, 100 μM in the syringe; details: both partners purified
T3 chain: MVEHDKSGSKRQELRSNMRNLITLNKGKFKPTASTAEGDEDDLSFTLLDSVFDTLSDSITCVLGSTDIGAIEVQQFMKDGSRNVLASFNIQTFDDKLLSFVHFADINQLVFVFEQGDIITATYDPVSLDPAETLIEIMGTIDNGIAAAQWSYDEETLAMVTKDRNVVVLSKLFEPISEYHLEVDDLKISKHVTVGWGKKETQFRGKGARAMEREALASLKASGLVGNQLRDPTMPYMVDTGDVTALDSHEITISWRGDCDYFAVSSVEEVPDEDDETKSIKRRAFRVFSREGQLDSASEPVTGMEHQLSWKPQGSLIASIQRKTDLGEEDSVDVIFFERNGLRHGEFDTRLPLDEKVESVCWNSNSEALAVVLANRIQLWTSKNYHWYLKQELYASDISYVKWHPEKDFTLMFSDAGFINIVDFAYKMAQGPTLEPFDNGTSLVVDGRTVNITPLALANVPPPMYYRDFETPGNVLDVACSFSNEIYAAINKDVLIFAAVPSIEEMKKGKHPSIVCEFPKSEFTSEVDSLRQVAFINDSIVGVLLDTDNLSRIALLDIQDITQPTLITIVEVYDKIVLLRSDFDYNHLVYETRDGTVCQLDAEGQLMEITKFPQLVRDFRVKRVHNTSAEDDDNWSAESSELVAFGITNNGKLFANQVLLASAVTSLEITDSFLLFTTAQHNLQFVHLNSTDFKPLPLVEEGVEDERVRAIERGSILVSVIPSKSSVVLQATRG

[4] = molecular target: B2; assay: cross-linking; XL-MS of purified Elongator (Elp1-TAP sample, 1 mg/ml) with isotope-coded DSS or DSG, 0.5–2 mM, 30 min at 37°C; xQuest/xProphet, ld score at least 30; details: both partners purified

B1: Full-length His6-tagged ScElp3, refolded and anaerobically reconstituted (enzyme, S. cerevisiae, UniProt Q02908 1-557, looked up)
chain: MARHGKGPKTNKKKLAPEKERFIQCCADITLELTDSLTSGTTREINLNGLITKYSKKYKLKQQPRLTDIINSIPDQYKKYLLPKLKAKPVRTASGIAVVAVMCKPHRCPHIAYTGNICVYCPGGPDSDFEYSTQSYTGYEPTSMRAIRARYDPYEQARGRVEQLKQLGHSIDKVEYVLMGGTFMSLPKEYREDFIVKLHNALSGFNGNDIDEAILYSQQSLTKCVGITIETRPDYCTQTHLDDMLKYGCTRLEIGVQSLYEDVARDTNRGHTVRSVCETFAVSKDAGYKVVSHMMPDLPNVGMERDIEQFKEYFENPDFRTDGLKIYPTLVIRGTGLYELWKTGRYKSYSANALVDLVARILALVPPWTRIYRVQRDIPMPLVTSGVDNGNLRELALARMKDLGTTCRDVRTREVGIQEVHHKVQPDQVELIRRDYYANGGWETFLSYEDPKKDILIGLLRLRKASKKYTYRKEFTSQRTSIVRELHVYGSVVPLHSRDPRKFQHQGFGTLLMEEAERIAKEEHGSEKISVISGVGVRNYYGKLGYELDGPYMSKRI
notes: Elp3, Elongator subunit 3, S. cerevisiae; Carries a reconstituted Fe/S cluster; also called ScElp3H6
- binding result [1]: binds

Binder: B2
- binding result [2]: binds

B3: synthetic peptide of the conserved N-terminal region of Elp4 (aa1–27) (peptide, UniProt Q02884 1-27, looked up)
peptide: MSFRKRGEILNDRGSGLRGPLLRGPPR
notes: Elp4, S. cerevisiae, residues 1–27; source: synthetic peptide (Peptide Specialty Laboratories, Germany)
- Kd [3]: 1600 ± 400 nM

B4: endogenous Elp4 (natural protein, UniProt Q02884 1-456, looked up)
chain: MSFRKRGEILNDRGSGLRGPLLRGPPRTSSTPLRTGNRRAPGNVPLSDTTARLKKLNIADESKTKMGLDSSHVGVRPSPATSQPTTSTGSADLDSILGHMGLPLGNSVLVEEQSTTEFHSILGKLFAAQGIVHNRISDSSADKTRNGDTHVIVLSLNQMFAKELPGIYKGSRKQMKKNLISEEESKVTVQNLNETQRSTPSRYKDLKIAWKYKLADEKRLGSPDRDDIQQNSEYKDYNHQFDITTRLMPAPIASELTFIAPTQPVSTILSQIEQTIKRNDKKLIRIVIPSLLHPAMYPPKMFESSEIIGLMHGVRSLVKKYYERVVLFASISIDIITPPLLVLLRNMFDSVINLEPFNQEMTEFLERVYKSQPGKIQHGLVHILKLPVFTDRGEMRVLKSEWAFKNGRKKFEIEQWGIPVDDAEGSAASEQSHSHSHSDEISHNIPAKKTKISLDY
notes: Elp4, S. cerevisiae, endogenous protein; source: endogenous, S. cerevisiae strains BS1173 and BSY2369, co-purified with Elp1-TAP or Elp6-TAP
- binding result [2]: binds
- binding result [4]: binds

B5: synthetic peptide of the conserved N-terminal region of Elp4 (aa1–10) (peptide, UniProt Q02884 1-10, looked up)
peptide: MSFRKRGEIL
notes: Elp4, S. cerevisiae, residues 1–10; source: synthetic peptide (Peptide Specialty Laboratories, Germany)
- Kd [3]: 2700 ± 300 nM
